Data on one molecule can be found in PMC5552905, “Mechanisms of peptide sex pheromone regulation of conjugation in Enterococcus faecalis” (MicrobiologyOpen, 2017).

Entries after “also recorded” stand apart in the source; their conditions may differ. Read-outs that look alike come from different tables or passages of the source.

Test [1] concerns B2 m1 DNA probe (XBS2 sequence changed). Put plainly: EMSA: PrgX and RNAP binding to B2 m1 probe (mutated XBS2). More on the design: species or system Enterococcus faecalis (plasmid pCF10). To be noted: PrgX 18, 54 nmol L^−1; RNAP 200, 240 nmol L^−1; RT, 15 min. The text has this:
(§1) The LT DNA template containing XBS1 and XBS2 sites (LT DNA, pCF10 sequence from nt 8029 to nt8185 (Hirt et al., 2005)) was PCR amplified from pCF10 using primers as described in. The XBS1 DNA template only has XBS1 site (pCF10 sequence 8029–8131nt) was made by annealing oligos ‐129/‐47‐F (5′[…] 3′) and −129/−47R (5′[…] 3′) to obtain double‐stranded DNA. The XBS2 DNA template only has the XBS2 site (pCF10 sequence from 8109 to 8290; −66 to +114 relative to the prgQ transcription initiation site), and was PCR amplified from pCF10 using primers as described in Caserta et al., 2012. In DNA templates with 5‐bp or 10‐bp insertions, sequence GTACC or […] was inserted between XBS1 and XBS2 sites and at a position of 6‐bp after the XBS1 site. DNA probes were labeled at the 3′‐ends with DIG‐11‐ddUTP using the DIG Gel Shift kit (Roche) by following the manufacturer's instructions. EMSA assays were performed in 20 μl reactions: DIG‐labeled DNA, purified proteins, 1 μg of poly‐[d(A‐T)], 0.1 μg of poly‐L‐lysine, 1 × reaction buffer (20 mmol L^−1 Tris‐HCl, pH 7.9, 0.1 mol L^−1 NaCl, 0.1 mmol L^−1 EDTA, 10% glycerol, 0.01 mol L^−1 MgCl2). The reactions were incubated at room temperature for 15 min and loaded onto 5% polyacrylamide gels in 1 × TBE buffer (Tris, Borate, EDTA, pH 7.9). […]
(In general: A gel shift assay detects complexes by their altered migration in electrophoresis.)

Test [2] has as its system P Q (prgQ promoter) lacZ reporter. Put plainly: β-galactosidase assay of P Q-lacZ reporter (pBK2, pBK2 + 5, pBK2 + 10) in E. faecalis. It counts as cell-based, Enterococcus faecalis. To be noted: 10 ng/ml of C, 30 min at 37°C, PrgX in trans from pCF10, one experiment representative of three. The protocol:
To construct plasmids pBK2 + 5 and pBK2 + 10, the intergenic region between prgQ and prgX was excised from plasmids pBKAdd5 and pBKAdd10 and was cloned into pBK2 using enzymes XhoI and BamHI. Plasmids pBKAdd5 and pBKAdd10 (have the 5‐bp and 10‐bp sequence inserted between XBS1 and XBS2 sites (Kozlowicz, 2005).
E. faecalis cultures were grown overnight in M9‐YEG broth at 37°C with selective antibiotics. Cultures were then diluted 1:10 in fresh medium and grown for 90 min at 37°C. For induction, a final concentration of 10 ng/ml of C was added and cells were incubated for additional 30 min at 37°C. A modified Miller assay was performed as previously described (Kozlowicz, Bae, & Dunny, 2004).
To examine the effects of looping in vivo, we introduced the +5 and +10 base pair insertions between XBS1 and XBS2 sites on the reporter plasmid pBK2, which has a pheromone‐inducible lacZ reporter gene fused downstream from P Q. This enables transcription from P Q to be monitored by measuring β‐galactosidase activity in cell extracts. We transformed these constructs into either OG1Sp or OG1Sp/pCF10 (to provide PrgX protein in trans) and the resulting strains were assayed for β‐galactosidase production in the presence or absence of C.
Figure 4 Expression of β‐galactosidase from E. faecalis cells containing pBK2, pBK2 + 5, and pBK2 + 10. […]

In test [3] the test system is P Q (prgQ promoter). To be noted: purified PrgX, no peptide, ref Caserta et al., 2012, cited from earlier work. The text has this: The target of PrgX‐peptide‐mediated regulation is the prgQ promoter (P Q), which controls expression of the majority of factors involved in pCF10 conjugation. PrgX binds specifically to two operator sites (XBS1 and XBS2) in the P Q region between prgX and prgQ. Because the lower‐affinity XBS2 site overlaps PQ, occupancy of XBS2 by PrgX could impede RNA polymerase binding to the promoter. Based on genetic and structural data, it was proposed that pairs of PrgX dimers could bind to XBS1 and XBS2, with the intervening DNA forming a loop that is stabilized by protein–protein interactions between t ... || It is interesting to consider transcription regulation in the pCF10 system by PrgX in relation to other well‐studied bacterial transcription factors. Many of the canonical transcription factors such as LacI are present in very low concentrations, and are modulated by low molecular weight ligands (co‐repressors, etc.) that are generally more abundant (Muller‐Hill, 1998). In contrast, wild‐type E. faecalis cells carrying pCF10 contain a large excess of PrgX (~15‐fold ratio of X dimers/XBSs) (Caserta et al., 2012), while the extracellular (and probably intracellular) concentrations of the peptide ...

Test [4] has as its system XBS1 and XBS2 operator sites. To be noted: apo-PrgX, ref Bae et al., 2002, cited from earlier work.
Excerpt: We determined effects of C and I on PrgX‐DNA binding using in vitro electrophoretic mobility shift assays (EMSAs).
Test [5] concerns LT DNA (prgQ promoter). It counts as binding, Enterococcus faecalis (plasmid pCF10). An excerpt: (§2) The LT DNA template containing XBS1 and XBS2 sites (LT DNA, pCF10 sequence from nt 8029 to nt8185 (Hirt et al., 2005)) was PCR amplified from pCF10 using primers as described in. The XBS1 DNA template only has XBS1 site (pCF10 sequence 8029–8131nt) was made by annealing oligos ‐129/‐47‐F (5′[…] 3′) and −129/−47R (5′[…] 3′) to obtain double‐stranded DNA. The XBS2 DNA template only has the XBS2 site (pCF10 sequence from 8109 to 8290; −66 to +114 relative to the prgQ transcription initiation site), and was PCR amplified from pCF10 using primers as described in Caserta et al., 2012. In DNA templates with 5‐bp or 10‐bp insertions, sequence GTACC or […] was inserted between XBS1 and XBS2 sites and at a position of 6‐bp after the XBS1 site. DNA probes were labeled at the 3′‐ends with DIG‐11‐ddUTP using the DIG Gel Shift kit (Roche) by following the manufacturer's instructions. EMSA assays were performed in 20 μl reactions: DIG‐labeled DNA, purified proteins, 1 μg of poly‐[d(A‐T)], 0.1 μg of poly‐L‐lysine, 1 × reaction buffer (20 mmol L^−1 Tris‐HCl, pH 7.9, 0.1 mol L^−1 NaCl, 0.1 mmol L^−1 EDTA, 10% glycerol, 0.01 mol L^−1 MgCl2). The reactions were incubated at room temperature for 15 min and loaded onto 5% polyacrylamide gels in 1 × TBE buffer (Tris, Borate, EDTA, pH 7.9). After electrophoresis at 100 V for 1.5 h, the DNA–protein complexes and DNA probes were electrotransferred onto a nylon membrane (Roche) at 6 V for 2 h using the GENIE electrophoretic blotter (Idea Scientific). DIG‐labeled DNA fragments were visualized by an enzyme immunoassay (DIG Gel Shift Kit, Roche) following the manufacturer's instructions. […] For the experiments reported here the powdered form of the peptides were initially solubilized in pure DMF at 0.5 mg/ml, and then diluted 10‐fold in KPBS for use as a working stock solution, which was diluted into the EMSA reactions to a final peptide concentration of 40 nmol L^−1.

In test [6] the test system is LT DNA (containing XBS1 and XBS2 sites). It counts as binding, Enterococcus faecalis (plasmid pCF10).
Excerpt: as §2

The subject of test [7] is +5 probe (5 bp inserted between XBS1 and XBS2 sites).
Excerpt: as §1

Test [8] concerns +10 probe (10 bp inserted between XBS1 and XBS2 sites). In kind it is binding, Enterococcus faecalis (plasmid pCF10).
Excerpt: as §1

Test [9] relates to LT DNA (XBS1 and XBS2 operator sites), P Q promoter region. It counts as binding, Enterococcus faecalis (plasmid pCF10). To be noted: LT DNA 8 fmol; PrgX 38-568 nmol L^−1 preincubated 5 min at room temperature with 40 nmol L^−1 peptide (C, I).
Excerpt: as §2
EMSA assays were performed using 8 fmol of digoxigenin‐labeled LT DNA probes with increasing amounts of PrgX protein. PrgX was preincubated for 5‐min at room temperature with 40 nmol L^−1 of C (a) or I (b) before adding LT DNA. PrgX concentrations: lanes 2 and 6: 38 nmol L^−1; lanes 3 and 7: 76 nmol L^−1; lanes 4 and 8: 190 nmol L^−1; lanes 5 and 9: 568 nmol L^−1. (c) Cartoon showing the predicted products formed by binding PrgX to LT DNA.

B1: PrgX: master transcription regulator PrgX, a repressor of transcription of the prgQ operon; apo form is a dimer in solution (protein)
chain: MFKIGSVLKQIRQELNYHQIDLYSGIMSKSVYIKVEADSRPISVEELSKFSERLGVNFFEILNRAGMNTKSVNETGKEKLLISKIFTNPDLFDKNFQRIEPKRLTSLQYFSIYLGYISIAHHYNIEVPTFNKTITSDLKHLYDKRTTFFGIDYEIVSNLLNVLPYEEVSSIIKPMYPIVDSFGKDYDLTIQTVLKNALTISIMNRNLKEAQYYINQFEHLKTIKNISINGYYDLEINYLKQIYQFLTDKNIDSYLNAVNIINIFKIIGKEDIHRSLVEELTKISAKEKFTPPKEVTMYYENYVAIENNPIPEIKEQS
modifications: left off: His tag, end not stated, kept
notes: master transcription regulator PrgX, a repressor of transcription of the prgQ operon; apo form is a dimer in solution
B1: the “binding to B2 m1 probe” value in test [1] was “produced the band I shift, however, there was a dramatic reduction in band II”. Besides, the “lacZ expression (β-galactosidase), 5 bp insertion construct” value in [2] (pBK2 + 5) is on record as “no effect on lacZ activity”. Moreover, the “lacZ expression (β-galactosidase), 10 bp insertion construct” value in [2] (pBK2 + 10) is “β‐galactosidase expression was repressed”. For the same molecule, the “repression of P Q in vitro” value in [3] is on record as “directly represses P Q”; in test [3] (listed as apo‐PrgX), “repress prgQ transcription in vitro”. Also, the “relative affinity for XBS1 vs XBS2 / binding to probes lacking XBS1” value in test [4] (listed as Apo‐PrgX) is “binds to XBS1 with relatively higher affinity than to XBS2”; in test [4] (listed as apo‐PrgX), “reduced binding of apo‐PrgX to DNA probes lacking XBS1 and virtually no supershifted species resembling Band II”. Also, the “effect on LT DNA shifts / RNAP binding” value in test [5] is on record as “formation of the high‐molecular‐weight RNAP‐DNA species was nearly eliminated; also recorded: hinders RNAP binding to prgQ promoter”. Moreover, the “fold higher K D of PrgX dimer to XBS1 site” value in [6] is “about 10 fold”. In addition, in [6], the “fold higher K D of PrgX dimers bound to XBS2” value is reported as about 1000 fold. In addition, the Kd in test [6] (EMSA densitometry, two-site binding polynomial, apo-PrgX (dimer) on LT DNA, mean ± SD of three independent EMSA experiments, read-out: K xbs1: K D of binding to XBS1 site) turned out to be 4.04 ± 3.36 nM. Moreover, the “shift of +5 probe (band I / band II)” value in [7] is “shifted the probe nearly completely to band I, with no distinct supershifted band II”. The “shift of +10 probe (band I / band II)” value in test [8] is listed as “binding profile was similar to LT DNA wild‐type probe”. Moreover, the “effect on PrgX-DNA binding: shifted complexes, amount of band II (supershift)” value in test [9] was “bound to the LT, producing two‐shifted complexes: band I and band II”.
